Laboratory results published in paper PMC12564070, “Rapid and Quantitative Detection of TNF-α in Human Tears Using a Portable Electrochemiluminescence-Based Device”.

Experiments:
IL-6 = IL-6 (UniProt P05231 30-212); test: electrochemiluminescence aptasensor (Apt-VSM/ITO electrode); 1 ng/mL IL-6, interference test; negligible ECL variation; Aptamer immobilized on VSM/ITO electrode, 0.5% BSA block, 0.1 M PBS rinse; binding buffer, pH and temperature not given in the material
TNF-alpha = TNF-alpha (Homo sapiens, UniProt P01375 77-233); test: electrochemiluminescence aptasensor (Apt-VSM/ITO electrode); linear 0.1-200 pg/mL, LOD 0.089 pg/mL; Ru luminophore/TPrA; Aptamer immobilized on VSM/ITO electrode, 0.5% BSA block, 0.1 M PBS rinse; binding buffer, pH and temperature not given in the material; conditions: protein: commercial; chain copies: 3
TNF-alpha, sequence (P01375 77-233): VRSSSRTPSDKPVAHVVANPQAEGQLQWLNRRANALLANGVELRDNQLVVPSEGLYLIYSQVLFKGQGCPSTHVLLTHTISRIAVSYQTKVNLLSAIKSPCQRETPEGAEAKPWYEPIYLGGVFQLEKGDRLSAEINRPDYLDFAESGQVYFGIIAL

IL-6, sequence (P05231 30-212): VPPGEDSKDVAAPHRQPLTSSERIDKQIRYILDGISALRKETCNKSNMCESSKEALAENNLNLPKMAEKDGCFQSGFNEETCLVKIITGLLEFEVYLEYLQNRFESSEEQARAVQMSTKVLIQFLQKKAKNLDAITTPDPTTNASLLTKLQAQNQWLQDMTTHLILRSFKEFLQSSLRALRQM

B1: TNF-alpha aptamer (ssDNA)
DNA: GCGCCACTACAGGGGAGCTGCCATTCGAATAGGTGGGCCGC
modifications: amino-modified (end not stated), coupled to GPTMS epoxy groups on VSM/ITO electrode
B1: no binding (IL-6); binds (TNF-alpha).
